# Test results reported in paper PMC5458252, “Niclosamide is a potential therapeutic for familial adenomatosis polyposis by disrupting Axin-GSK3 interaction” (Oncotarget, 2017).
# Target: T1, His-tagged recombinant GSK3β (UniProt P49841 1-420)
# T1 construct: GSK3β, recombinant; source: sf9 insect cells, recombinant, purified
# Experiment: SPR; ProteOn XPR36; GSK3β immobilised on a GLH sensor chip; peptides in PBS with Tween 20 and 1% DMSO flowed at 100 μl/min; Langmuir model
# Settings: both partners purified
# T1 sequence (P49841 whole entry): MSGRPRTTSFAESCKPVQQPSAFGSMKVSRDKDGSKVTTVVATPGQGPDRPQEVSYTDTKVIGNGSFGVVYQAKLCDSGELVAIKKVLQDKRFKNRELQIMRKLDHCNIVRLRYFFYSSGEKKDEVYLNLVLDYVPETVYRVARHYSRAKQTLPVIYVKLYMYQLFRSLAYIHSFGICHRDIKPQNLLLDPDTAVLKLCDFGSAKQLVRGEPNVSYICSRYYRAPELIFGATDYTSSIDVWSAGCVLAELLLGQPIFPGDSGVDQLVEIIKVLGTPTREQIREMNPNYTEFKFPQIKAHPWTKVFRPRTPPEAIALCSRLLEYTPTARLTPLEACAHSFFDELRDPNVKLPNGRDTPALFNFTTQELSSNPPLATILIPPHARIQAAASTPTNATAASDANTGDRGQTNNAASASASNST
binder,measurement,value
"VEPQKFAEELIHRLEAVQR (Axin1, residues 383-401; source: synthetic peptide) [19-mer wild type Axin peptide]",Kd,11.9 µM
